Changes are numbered by the printed parent chain. Names may count otherwise.
B1: hCdc14B^Q390A (Homo sapiens; Q390A) (protein)
chain: MSREGAGAALVAEVIKDRLCFAILYSRPKSASNVHYFSIDNELEYENFYADFGPLNLAMVYRYCCKINKKLKSITMLRKKIVHFTGSDQRKQANAAFLVGCYMVIYLGRTPEEAYRILIFGETSYIPFRDAAYGSCNFYITLLDCFHAVKKAMQYGFLNFNSFNLDEYEHYEKAENGDLNWIIPDRFIAFCGPHSRARLESGYHQHSPETYIQYFKNHNVTTIIRLNKRMYDAKRFTDAGFDHHDLFFADGSTPTDAIVKEFLDICENAEGAIAVHCKAGLGRTGTLIACYIMKHYRMTAAETIAWVRICRPGSVIGPQQQFLVMKQTNLWLEGDYFRQKLKGQENGQHRAAFSKLLSGVDDISINGVENQDQQEPEPYSDDDEINGVTAGDRLRALKSRRQSKTNAIPLT
notes: codons 1-411; N-terminal GST; expressed in E. coli
B2: ScCdc14^1-374 (Saccharomyces cerevisiae S288C) (protein)
chain: MRRSVYLDNTIEFLRGRVYLGAYDYTPEDTDELVFFTVEDAIFYNSFHLDFGPMNIGHLYRFAVIFHEILNDPENANKAVVFYSSASTRQRANAACMLCCYMILVQAWTPHQVLQPLAQVDPPFMPFRDAGYSNADFEITIQDVVYGVWRAKEKGLIDLHSFNLESYEKYEHVEFGDFNVLTPDFIAFASPQEDHPKGYLATKSSHLNQPFKSVLNFFANNNVQLVVRLNSHLYNKKHFEDIGIQHLDLIFEDGTCPDLSIVKNFVGAAETIIKRGGKIAVHCKAGLGRTGCLIGAHLIYTYGFTANECIGFLRFIRPGMVVGPQQHWLYLHQNDFREWKYTTRISLKPSEAIGGLYPLISLEEYRLQKKKLKD
B3: hCdc14B^1-411 (Homo sapiens) (protein)
chain: DRLCFAILYSRPKSASNVHYFSIDNELEYENFYADFGPLNLAMVYRYCCKINKKLKSITMLRKKIVHFTGSDQRKQANAAFLVGCYMVIYLGRTPEEAYRILIFGETSYIPFRDAAYGSCNFYITLLDCFHAVKKAMQYGFLNFNSFNLDEYEHYEKAENGDLNWIIPDRFIAFCGPHSRARLESGYHQHSPETYIQYFKNHNVTTIIRLNKRMYDAKRFTDAGFDHHDLFFADGSTPTDAIVKEFLDICENAEGAIAVHCKAGLGRTGTLIACYIMKHYRMTAAETIAWVRICRPGSVIGPQQQFLVMKQTNLWLEGDYFRQKLKGQENGQHRAAFSKLLSGVDDISINGVENQDQQEPEPYSDDDEINGVTQGDRLRALKSRRQSKTNAIPLT
notes: as for B1
B4: ScCdc14^1-449 (Saccharomyces cerevisiae S288C) (protein)
chain: MRRSVYLDNTIEFLRGRVYLGAYDYTPEDTDELVFFTVEDAIFYNSFHLDFGPMNIGHLYRFAVIFHEILNDPENANKAVVFYSSASTRQRANAACMLCCYMILVQAWTPHQVLQPLAQVDPPFMPFRDAGYSNADFEITIQDVVYGVWRAKEKGLIDLHSFNLESYEKYEHVEFGDFNVLTPDFIAFASPQEDHPKGYLATKSSHLNQPFKSVLNFFANNNVQLVVRLNSHLYNKKHFEDIGIQHLDLIFEDGTCPDLSIVKNFVGAAETIIKRGGKIAVHCKAGLGRTGCLIGAHLIYTYGFTANECIGFLRFIRPGMVVGPQQHWLYLHQNDFREWKYTTRISLKPSEAIGGLYPLISLEEYRLQKKKLKDDKRVAQNNIEGELRDLTMTPPSNGHGALSARNSSQPSTANNGSNSFKSSAVPQTSPGQPRKGQNGSNTIEDINNN
B5: ScCdc14^Q432E (Saccharomyces cerevisiae S288C; Q432E) (protein)
chain: B4 chain with Q432E
B6: ScCdc14^Q432N (Saccharomyces cerevisiae S288C; Q432N) (protein)
chain: B4 chain with Q432N
B7: ScCdc14^Q432A (Saccharomyces cerevisiae S288C; Q432A) (protein)
chain: B4 chain with Q432A
B8: ScCdc14^P433A/K435A (Saccharomyces cerevisiae S288C; K435A/P433A) (protein)
chain: B4 chain with P433A, K435A
B9: ScCdc14^S429E (Saccharomyces cerevisiae S288C; S429E) (protein)
chain: B4 chain with S429E

substrate: Cc1cc(=O)oc2c(F)c(OP(=O)(O)O)c(F)cc12; experiment: not given; type: biochemical; conditions: pH 7.5; 30.0 °C
Text: Enzym e kcat (sec-1) KM (µM)

| Protein | Km |
| --- | --- |
| B1 | 2.88 µM |
| B2 | 0.76 µM |
| B3 | 46 µM |
| B4 | 8.4 µM |
| B5 | 1.11 µM |
| B6 | 0.92 µM |
| B7 | 0.72 µM |
| B8 | 1.0 µM |

substrate: Cc1cc(=O)oc2c(F)c(OP(=O)(O)O)c(F)cc12; experiment: purified protein, by the assay type; conditions: pH 7.5; 30.0 °C
Protocol: Data from velocity versus substrate concentration plots were fit with the Michaelis–Menten equation in GraphPad Prism (https://www.graphpad.com/) to determine steady-state kinetic parameters kcat and KM. For trans peptide stimulation assays, DiFMUP was used at a single concentration well above the measured KM for each enzyme. […] (where pS is phosphoSer), were assayed in Cdc14 reaction buffer with Biomol Green (Enzo Life Science) detection of released inorganic phosphate as previously described ([29]). Data were fit with a modified Michaelis–Menten equation including a substrate inhibition term in Prism.
After removing the Cdk1-bound affinity resin, we measured effects on Cdc14 steady-state kinetic parameters with DiFMUP.
Values are means of at least six independent measurements and error bars are SDs.

| Protein | Km |
| --- | --- |
| B4 | 25 µM |
| B9 | 3.3 µM |
